Experimental data: US20030143656A1

Tests used:
[1] = molecular target: GST-PDK1 I119A (human), O15530; experiment: cell-based or functional assay
[2] = molecular target: 412E-p70 S6K-T2 (His-tagged, insect cells) (human) (UniProt P23443); experiment: SPR, His-PDK1 injected over 412E-p70 S6K-T2 amine-coupled to a CM5 chip, steady state
Chain of 412E-p70 S6K-T2 (His-tagged, insect cells) (human) (P23443 other isoform, or with tags, fused parts or gaps): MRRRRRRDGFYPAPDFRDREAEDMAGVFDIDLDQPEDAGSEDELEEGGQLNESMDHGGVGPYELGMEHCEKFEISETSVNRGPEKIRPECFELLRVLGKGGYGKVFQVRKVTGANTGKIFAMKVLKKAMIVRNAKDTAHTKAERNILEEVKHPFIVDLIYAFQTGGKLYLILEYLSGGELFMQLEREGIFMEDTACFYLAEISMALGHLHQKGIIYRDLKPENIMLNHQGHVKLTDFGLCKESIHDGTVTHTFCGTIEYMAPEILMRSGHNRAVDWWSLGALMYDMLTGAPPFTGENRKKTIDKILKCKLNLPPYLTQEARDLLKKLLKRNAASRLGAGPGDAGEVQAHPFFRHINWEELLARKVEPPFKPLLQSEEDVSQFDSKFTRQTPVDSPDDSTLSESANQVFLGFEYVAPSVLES

inhibition by 2 µM PIFtide of the activation of S6K1-T2[T412E] and SGK1[T422D] by the PDK1 mutant [1] [%] | inhibition by 35 µM PIFtide of the activation of S6K1-T2[T412E] and SGK1[T422D] by the PDK1 mutant [1] [%] | stimulation of the PDK1 mutant towards T308tide by PIF [1] [fold] | Kd [2] [µM] | Binder
50 | > 95 | 2 | – | REPRILSEEEQEMFRDFDYIADWC [PIFtide]
– | – | – | 8 | His-PDK1 (enzyme, human, UniProt O15530 52-556, looked up, not shown: small tags and cut ends) DGTAAEPRPGAGSLQHAQPPPQPRKKRPEDFKFGKILGEGSFSTVVLARELATSREYAIKILEKRHIIKENKVPYVTRERDVMSRLDHPFFVKLYFTFQDDEKLYFGLSYAKNGELLKYIRKIGSFDETCTRFYTAEIVSALEYLHGKGIIHRDLKPENILLNEDMHIQITDFGTAKVLSPESKQARANSFVGTAQYVSPELLTEKSACKSSDLWALGCIIYQLVAGLPPFRAGNEYLIFQKIIKLEYDFPEKFFPKARDLVEKLLVLDATKRLGCEEMEGYGPLKAHPFFESVTWENLHQQTPPKLTAYLPAMSEDDEDCYGNYDNLLSQFGCMQVSSSSSSHSLSASDTGLPQRSGSNIEQYIHDLDSNSFELDLQFSEDEKRLLLEKQAGGNPWHQFVENNLILKMGPVDKRKGLFARRRQLLLTEGPHLYYVDPVNKVLKGEIPWSQELRPEAKNFKTFFVHTPNRTYYLMDPSGNAHKWCRKIQEVWRQRYQSHPDAAVQ
